Measured values: US20200190473A1, “Plasmacytoid Dendritic Cells Having Immune Tolerance, and Method for Producing Same” (QURATIS INC., priority 2017, published 2020)

Tests used:
[1] = tested on: plasmacytoid dendritic cells; type: cell-based, mouse; details: pDC differentiated with TLR agonist on day 3, stimulated with ODN1826 (1 μg/ml), 24 hours, ELISA; vs conventional pDC
TLR2 receptor [2] = molecular target: TLR2 receptor (Mus musculus, UniProt Q9QUN7); type: binding
TLR2 receptor [3] = type: binding, mouse; details: 5 μg/ml, 2 hours; compared to untreated group

Chain of TLR2 receptor (Mus musculus, UniProt Q9QUN7) (Q9QUN7 25-784): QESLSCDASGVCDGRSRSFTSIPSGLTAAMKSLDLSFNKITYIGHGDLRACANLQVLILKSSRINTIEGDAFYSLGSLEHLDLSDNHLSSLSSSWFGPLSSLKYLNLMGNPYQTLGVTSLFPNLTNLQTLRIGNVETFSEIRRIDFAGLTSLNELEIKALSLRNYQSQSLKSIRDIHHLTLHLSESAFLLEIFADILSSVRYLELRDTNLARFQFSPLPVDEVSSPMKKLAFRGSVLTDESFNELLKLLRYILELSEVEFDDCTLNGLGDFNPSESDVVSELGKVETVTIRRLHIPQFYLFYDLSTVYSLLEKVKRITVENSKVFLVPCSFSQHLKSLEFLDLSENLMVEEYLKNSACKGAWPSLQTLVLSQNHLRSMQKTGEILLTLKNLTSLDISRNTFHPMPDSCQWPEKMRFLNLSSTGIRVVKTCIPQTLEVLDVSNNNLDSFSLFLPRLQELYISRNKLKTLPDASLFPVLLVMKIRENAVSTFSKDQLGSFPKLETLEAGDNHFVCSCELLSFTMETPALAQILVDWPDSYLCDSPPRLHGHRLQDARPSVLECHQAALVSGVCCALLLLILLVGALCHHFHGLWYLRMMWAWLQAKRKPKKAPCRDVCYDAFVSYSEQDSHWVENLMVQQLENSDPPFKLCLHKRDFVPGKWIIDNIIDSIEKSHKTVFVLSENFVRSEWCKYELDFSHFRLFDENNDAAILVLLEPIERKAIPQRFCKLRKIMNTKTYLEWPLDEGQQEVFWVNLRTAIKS

B1: Rv1411c protein: His-labeled protein derived from M tuberculosis, confirmed as TLR2 agonist (protein, UniProt P9WK45 27-236, looked up)
Lipoarabinomannan carrier …: CSSGSKPSGGPLPDAKPLVEEATAQTKALKSAHMVLTVNGKIPGLSLKTLSGDLTTNPTAATGNVKLTLGGSDIDADFVVFDGILYATLTPNQWSDFGPAADIYDPAQVLNPDTGLANVLANFADAKAEGRDTINGQNTIRISGKVSAQAVNQIAPPFNATQPVPATVWIQETGDHQLAQAQLDRGSGNSVQMTLSKWGEKVQVTKPPVS
modifications: His tag
notes: His-labeled protein derived from M tuberculosis, confirmed as TLR2 agonist
expression level of IFN-α [1]: drastically reduced in a concentration-dependent manner
expression level of IFN-β [1]: drastically reduced in a concentration-dependent manner
expression level of IL-10 [1]: marked increase in a concentration-dependent manner
expression level of IL-12p70 [1]: drastically reduced in a concentration-dependent manner
expression level of TNF-α [1]: drastically reduced in a concentration-dependent manner
binding to TLR2 receptor (TLR2 receptor [2]): binds to the TLR2 receptor
binding to wild-type dendritic cells (WT) (TLR2 receptor [2]): increased binding
binding strength to TLR2 knockout-derived dendritic cells (TLR2−/−) (TLR2 receptor [3]): the same as that in the untreated experimental group
